Reference: patent publication US8440788B2, “N-terminal VDAC variants and uses thereof” (Ben-Gurion University of The Negev Research and Development …, priority 2006, dated 2013)

Assays:
[1] = test system: hVDAC1-shRNA-T-REx-293 cells; experiment: Apoptosis induced by various stimuli in cells expressing native or truncated mVDAC1; type: cell-based, human; conditions: for cell death in cells expressing native mVDAC1: hVDAC1-shRNA-T-REx-293 cells expressing mVDAC1
Protocol: (§1) Apoptotic cell death was analyzed by Acridine Orange/Ethidium Bromide staining.
(§2) T-REx-293 cells correspond to a transformed primary human embryonal kidney cell line, expressing the tetracycline repressor. hVDAC1-shRNA T-REx-293 cells stably expressing the pSUPERretro plasmid encoding shRNA targeting hVDAC1 were obtained and grown as described previously (Abu-Hamad et al. (2006), supra). […] Cell viability was analyzed by staining with acridine orange and ethidium bromide in PBS (Zaid et al. (2005). Cell death and differentiation, 12, 751-760). Images were recorded using Zeiss LSM510 confocal or Olympus IX51 fluorescence microscopes. Mitochondria preparation and measurements of ATP levels and Ca^+ accumulation were carried out as previously described (Abu-Hamad et al. (2006), supra).

HK-I [2] = target: T1, HK-I (Rattus norvegicus, UniProt P05708); experiment: Real time surface plasmon resonance, immobilized HK-I; type: binding; conditions: SPR, increasing peptide concentrations
T1 construct: Purified rat brain HK-I; from tissue; host or cells: rat brain
T1 sequence (P05708 1-918): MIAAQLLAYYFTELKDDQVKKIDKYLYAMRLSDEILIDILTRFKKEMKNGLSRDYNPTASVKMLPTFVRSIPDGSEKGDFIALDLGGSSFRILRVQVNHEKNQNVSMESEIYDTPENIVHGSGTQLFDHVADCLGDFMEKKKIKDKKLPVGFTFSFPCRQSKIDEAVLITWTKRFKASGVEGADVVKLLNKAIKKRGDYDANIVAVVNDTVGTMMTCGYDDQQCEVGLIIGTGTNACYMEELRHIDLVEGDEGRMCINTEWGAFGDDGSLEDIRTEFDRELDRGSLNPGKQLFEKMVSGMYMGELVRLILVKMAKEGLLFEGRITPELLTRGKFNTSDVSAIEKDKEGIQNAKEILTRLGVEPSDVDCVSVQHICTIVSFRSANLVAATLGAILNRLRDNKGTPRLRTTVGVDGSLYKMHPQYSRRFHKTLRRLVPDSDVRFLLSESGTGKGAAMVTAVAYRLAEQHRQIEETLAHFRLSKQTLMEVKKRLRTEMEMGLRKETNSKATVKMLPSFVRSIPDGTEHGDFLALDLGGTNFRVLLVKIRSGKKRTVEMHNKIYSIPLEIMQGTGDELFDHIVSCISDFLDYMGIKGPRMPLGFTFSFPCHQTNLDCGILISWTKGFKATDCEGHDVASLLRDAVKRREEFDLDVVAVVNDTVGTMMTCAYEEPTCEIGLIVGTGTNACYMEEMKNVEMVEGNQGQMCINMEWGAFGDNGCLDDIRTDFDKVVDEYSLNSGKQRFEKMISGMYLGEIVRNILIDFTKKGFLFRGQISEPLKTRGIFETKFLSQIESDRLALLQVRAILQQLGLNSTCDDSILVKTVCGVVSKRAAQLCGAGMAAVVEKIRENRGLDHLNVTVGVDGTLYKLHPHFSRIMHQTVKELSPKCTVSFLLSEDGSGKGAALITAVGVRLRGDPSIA
Protocol: (§3) Surface plasmon resonance (SPR) using the ProteOn-XPR36 (Bio-Rad, USA) system was employed to study the interaction of VDAC1 N-terminal peptides with purified HK-I and Bcl2. Purified rat brain HK-I, recombinant Bcl2 and rabbit IgG were immobilized on a CM5 sensor surface according to the manufacture's instructions. N-terminal VDAC1 peptides were diluted in running buffer (150 mM NaCl, 0.005% Tween-20, 4% (V/V) DMSO, 10 mM PBS, pH, 7.4) and injected onto the sensor chip at varying concentrations at a flow rate of 40 μl/min at 25° C.

Bcl2 = Bcl2 (Homo sapiens, UniProt P10415); experiment: Real time surface plasmon resonance, immobilized Bcl2; type: binding; conditions: SPR, increasing peptide concentrations
Sequence of Bcl2 (P10415 whole entry, species assumed): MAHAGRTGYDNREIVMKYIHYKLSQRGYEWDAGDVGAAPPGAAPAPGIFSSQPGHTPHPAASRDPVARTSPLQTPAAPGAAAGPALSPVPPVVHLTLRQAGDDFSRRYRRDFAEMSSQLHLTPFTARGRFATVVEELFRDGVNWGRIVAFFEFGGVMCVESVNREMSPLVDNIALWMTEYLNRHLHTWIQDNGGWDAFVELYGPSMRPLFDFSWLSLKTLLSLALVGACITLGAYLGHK
Protocol: as §3

IgG = experiment: Real time surface plasmon resonance, immobilized IgG (control); type: binding, rabbit; conditions: SPR control
Protocol: as §3

[3] = test system: hVDAC1-shRNA-T-REx-293 cells; experiment: Restoration of cell growth in T-REx-293 cells silenced for hVDAC1; type: cell-based, human; conditions: expression under tetracycline control; Trypan-Blue counting
Protocol: as §2

HK-I [4] = target: T1, HK-I; experiment: Effect of HK-I on channel activity of bilayer-reconstituted VDAC1; type: biochemical; conditions: HK-I (28 mU/ml), voltage step 0 to +40 mV
Protocol: (§4) Briefly, PLB were prepared from soybean asolectin dissolved in n-decane (50 mg/ml) in a chamber containing 10 mM Hepes/KOH, pH 7.4 and 0.5 or 1M NaCl (cis/trans). Only PLBs with a resistance greater than 100 GΩ were used. Purified VDAC (about 1 ng) was added to the chamber defined as the cis side. After insertion of one or more channels into the PLB, excess protein was removed by perfusion of the cis chamber with 20 volumes of a same solution. Currents were recorded under voltage-clamp mode using a Bilayer Clamp amplifier (Warner Instruments, Hamden, Conn.). Currents were measured with respect to the trans side of the membrane (ground). The currents were low-pass filtered at 1 kHz, using a Bessal filter (Frequency Devices, Haverhill, Mass.) and digitized on-line using a Digidata 1200 interface board and pCLAMP 6 software (Axon Instruments). Sigma Plot 2000 scientific software was used for data analyses. Experiments were performed at 23-25° C.

[5] = test system: hVDAC1-shRNA T-REx-293 cells; experiment: Cytochrome c release induced by staurosporine (STS); type: cell-based, human; conditions: STS (1.25 μM) for 5 h; Western blotting
Protocol: Seventy-two hours later, cells were exposed to STS (1.25 μM) for 5 h. Cells were harvested, washed twice with PBS, incubated on ice for 1 h in extraction buffer (200 mM manitol, 70 mM sucrose, 1 mM EGTA, 1 mM EDTA, 10 μg/ml leupeptine, 1 mM PMSF, 1 mg/ml BSA, 10 mM HEPES, pH 7.5) and then lysed with a Dounce homogenizer by 25 strokes. Homogenates were centrifuged (1000×g) at 4° C. for 10 min and the supernatants were re-centrifuged at 15,000×g for 30 min at 4° C. Aliquots (10 μl) of the resultant supernatants, designated as the cytosolic fraction, were immediately boiled in SDS-PAGE sample buffer and resolved by SDS-PAGE on Tris-Tricine gels (13% polyacrylamide) and immunoblotted using monoclonal anti-cytochrome c antibodies. To rule out mitochondrial contamination of the cytosolic fraction, the presence of VDAC was tested by immunoblotting. Although supernatants from the different treated cultures were derived from equal number of cells, protein concentration in the total cells lysates were estimated as well as, actin levels were analyzed by immunoblotting using anti-actin antibodies.

[6] = test system: T-REx-293 cells silenced for hVDAC1 expression; experiment: Cell death triggered by tetracycline-induced over-expression; type: cell-based, human; conditions: over-expression induced by 2.5 μg/ml tetracycline
Protocol: as §1, §2

[7] = Channel conductance of purified VDAC reconstituted into planar lipid bilayer; type: biochemical
Protocol: as §4

O=[As]O[As]=O (stereo not shown) [As2O3]
cell death in cells expressing native mVDAC1 [1]: induced death

CN[C@@H]1C[C@H]2O[C@@](C)([C@@H]1OC)n1c3ccccc3c3c4c(c5c6ccccc6n2c5c31)C(=O)NC4 [Staurosporine]
cell death in cells expressing native mVDAC1 [1]: induced death

COc1cc(/C=C/C(=O)CC(=O)/C=C/c2ccc(O)c(OC)c2)ccc1O [curcumin]
cell death in cells expressing native mVDAC1 [1]: induced death

LP3: VDAC1-based peptide representing a loop (E157 to T174, 18 amino acids) predicted to face the intermembranal space (ETAKSRVTQSNFAVGYKT)
binding to immobilized HK-I (HK-I [2]): did not interact
binding to immobilized Bcl2 (Bcl2): did not interact

VDAC1 N-terminal peptide: a peptide corresponding to the N-terminal region of VDAC1 (MAVPPTYADLGKSARDVFTKGYGFGL)
binding to immobilized HK-I (HK-I [2]): strongly bound
binding to immobilized Bcl2 (Bcl2): strongly bound
binding to IgG-immobilized chip (IgG): no signal

B1: Δ(1-26)mVDAC1: N-terminal truncated mouse VDAC1 polypeptide lacking amino acids 1-26 (protein)
chain: IKLDLKTKSENGLEFTSSGSANTETTKVNGSLETKYRWTEYGLTFTEKWNTDNTLGTEITVEDQLARGLKLTFDSSFSPNTGKKNAKIKTGYKREHINLGCDVDFDIAGPSIRGALVLGYEGWLAGYQMNFETSKSRVTQSNFAVGYKTDEFQLHTNVNDGTEFGGSIYQKVNKKLETAVNLAWTAGNSNTRFGIAAKYQVDPDACFSAKVNNSSLIGLGYTQTLKPGIKLTLSALLDGKNVNAGGHKLGLGLEFQA
sensitivity of expressing cells to induced apoptosis ([1]; curcumin (100 μM), As2O3 (60 μM) or STS (1.25 μM)): resistant
cell growth in cells silenced for hVDAC1 [3]: restored cell growth
effect of HK-I on channel activity (HK-I [4]): no effect
cytochrome c release into the cytosol [5]: no cytochrome c release
cell death on over-expression [6]: continue to grow over 8 days
apoptotic cell death ([6]; over 8 days): 5-8%
maximal conductance ([7]; at 1M NaCl): 4 nS
voltage dependence of conductance ([7]; planar lipid bilayer, FIG. 4): no voltage dependence
